B1: TPR t1 (parent)
chain: GACCAAUCUGCCCUCAGAGCUCGAGAACAUCUUCGGAUGCAGAGGAGGCAGGCUUCGGUGGCGCGAUAGCGCCAACGUCCUCAACCUCCAAUGCAUCCCACCACAUGAUGAUGCCUGAAGAGCCUUGGUUUUUUG

Variants of: B1
Assay: polymerase ribozyme fitness, log enrichment relative to wild type (log ratio); higher = more active; in vitro selection for triplet polymerase activity
How it was run: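 A heterodimeric triplet polymerase ribozyme had each of its subunits mutagenized by PCR into a library, which was transcribed. One round of in vitro selection, done in triplicate, annealed each library with a biotinylated primer, its partner subunit and triplets, then incubated it frozen at −7 °C before gel excision of extended constructs, streptavidin-bead capture and RT-PCR. Fitness is the logarithm of genotype enrichment relative to wild-type enrichment, based on Illumina sequencing of inputs and outputs and inverse-variance-weighted replicate averages. A base-2 logarithm is used, and genotypes were kept only with ≥10 input reads and ≥1 read per output.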

In order of falling “polymerase ribozyme fitness (log ratio)” value:
1. A2G C123G  1.69
2. C3A C79U C124G  0.849
3. A2G C12G U21A G71U U78A A121U  0.758
4. A2U G120C G135A  0.456
5. C3U A119G  0.367
6. A2U C11G  0.322
7. G1U  0.29
8. C3A G60A U112C  0.261
9. C3U A29U U109A  0.179
10. A2G G36C G48U G52U U59G C79G U112C  0.109
11. C3A C49A A75U C123U  0.0976
12. A2G C13G C86U C123A U133C  0.0468
13. C3U C40U G60U  0.0261
14. C3A U38A A121C U129A  -0.064
15. A2G U7A C12A G39A C82A G122A  -0.0716
16. A2G G63C  -0.0882
17. A2G C97U G117A A119G  -0.0934
18. A2G G71U  -0.153
19. C3U C53A C56A G69U  -0.204
20. C3U C13U U59A  -0.207
21. C3A C4U C72U C123G  -0.302
22. C3U C72A  -0.325
23. C3A C124A  -0.333
24. C3A C8G A37G G93A  -0.343
25. A2G C12U  -0.378
26. C3G G128C  -0.539
27. A2U A121U  -0.628
28. C3U C62A C72U  -0.819
29. A2C U7G G57U G60U  -0.82
30. C3G C4U A83U G122U C123U  -0.882
31. A2C C4U U9A C76U  -0.884
32. C3G C12G  -0.885
33. C3A A18C U112C U130C  -0.927
34. A2G U7A C70U A74C  -0.954
35. C3A A66U G69U  -1.08
36. A2C C12G  -1.09
37. C3G G48C U87G U130C  -1.16
38. A2G C82G  -1.18
39. A2U C11G G48U G93U G120C G122U  -1.28
40. A2C C72A G120U  -1.37
41. A2G U55G G135U  -1.42
42. A2U C13U A50G G63A U112C  -1.43
43. A2C U106A  -1.44
44. C3U A50G U55G G63A  -1.45
45. C3G U7G C15U U55G C56U G128U  -1.45
46. A2G G93C  -1.48
47. A2C C13A G36C G120U  -1.59
48. A2G C20G G113A  -1.61
49. A2G G52U G69C C86U  -1.64
50. A2C G61U  -1.66
51. C3A G44C C53U C123A  -1.67
52. C3A G10U U38A C49U C82U G128A U131G  -1.74
53. C3G G60C  -1.74
54. A2C C15U C56U U129C  -1.75
55. A2G U9C C13U A18U C56G A95G  -1.78
56. C3G C49A G57U C64U G120U G128U  -1.81
57. A2G C62U A83G  -1.82
58. C3G G47U G48C C82G C123U  -1.92
59. C3G A95G  -2.02
60. C3A C11G G48U C114A  -2.07
61. A2C G39U  -2.12
62. C3A U14G C62A A119U G120A  -2.14
63. A2C G47C C123G  -2.2
64. C3U C62U A74U C89G  -2.26
65. C3G C13U C56A  -2.3
66. C3G C12G C62U  -2.34
67. A2G G48U C80U U130C  -2.35
68. A2C C72U  -2.38
69. A2U G110U  -2.47
70. A2C C15U C104U  -2.51
71. C3A C102A U106C G120U C124U  -2.57
72. C3A C8A C12G G60A U92A C124A  -2.58
73. A2U C56A G120C  -2.63
74. A2G C28U G110U  -2.63
75. A2U U54C C115A  -2.65
76. C3U C34A C53A C79U C88U C97U  -2.66
77. A2G G47U A84C C88U A90U A91C U133G  -2.71
78. C3U C11A U78A  -2.75
79. C3U C13U C34U G69U C85U  -2.76
80. A2C C101A U129A  -2.79
81. A2U C88G U130A  -2.84
82. A2G A18C A91C  -2.93
83. A2G G19U G120U  -2.98
84. A2U C13A C73U A74G  -3.05
85. C3A G36C C70G G120A A121U  -3.08
86. A2U A50U  -3.14
87. C3G C49G  -3.17
88. C3G G36U C79U C89G C123G U133G  -3.18
89. C3A C11U C49G C53A G60A C101A  -3.22
90. C3A G44U G63C  -3.25
91. A2U U14G U106G G120A C124G  -3.26
92. C3G A37U C62A A95U G120C  -3.27
93. A2C G42U  -3.31
94. A2C G42C U96A C123U  -3.31
95. C3A A29U  -3.36
96. C3G A6C C49A C53U G61C C97U C101U  -3.42
97. A2U C53G C88G  -3.42
98. A2U A108G  -3.51
99. C3U C11U G48A C56U C89G C101U  -3.51
100. C3U C13U A41G G61U C79A C85U G120U G127C  -3.54
101. A2C G10A C13U G69C  -3.6
102. C3A C72A G110U  -3.62
103. C3U C15A G52C  -3.65
104. A2U G93C  -3.65
105. A2C C11A G17C C70U C123G  -3.69
106. C3G A24G  -3.73
107. C3A C56A C89A C115U  -3.79
108. C3A G48A A84G C114U  -3.87
109. A2U C115G  -3.95
110. A2U A91C G120U  -3.98
111. A2U G35U G69U C79U G120A G128A  -3.99
112. C3A G45U G57U C82U C104A C123A  -4.01
113. A2G U21A G69U G71C  -4.01
114. C3A C56G G61A U81A U131C  -4.05
115. A2C G63U A84G U131G  -4.08
116. A2G G61A U116A  -4.16
117. A2C C40G C56G C72G C124U  -4.17
118. A2G G35C C124A  -4.18
119. C3G G44U G45U C89A C94U A111U C123U U129C G135A  -4.23
120. A2U C8U G47C G93U  -4.25
121. C3A C53U U55A C73A G117A  -4.29
122. C3U C22A A74U G77A U106C C114A  -4.34
123. A2U G10U A100C  -4.35
124. A2U A5C A26G U54A  -4.4
125. C3A C13U C62U G113U  -4.41
126. C3G G47C G52A U87A C124G  -4.41
127. A2G G19A A43G C80U C104U  -4.42
128. A2U U9G G47U C88U G113A  -4.58
129. C3G U55C C72U G93A  -4.63
130. A2C C20G G60A U112C  -4.64
131. C3G C11G C97G C114A  -4.68
132. C3G C102A  -4.71
133. C3U C56U G69C C76G C115U G127U  -4.79
134. A2G C20A C88U  -4.8
135. A2G G63A C99U C101A A121G C124G  -4.81
136. C3G C22A G69A C124G G128C  -4.83
137. A2U A16G A26U G60U A119G  -4.84
138. A2U C11A U33A A37U G61U G120A  -4.91
139. C3A U33A G48U A121C C124G  -4.93
140. C3A C4G G10A G61U A74C C123G  -4.94
141. C3A A46U A50U G57A  -4.95
142. A2G C12G G17A U54C C88U A91U C101U A105U C114G  -5.19
143. A2G A68G U106G U125G  -5.29
144. C3A C20A C49G A50C G61U  -5.32
145. A2U C12U A27U G47A  -5.43
146. C3U A6U C20G A37U C72U C82U G113A A119C U129C U133A  -5.44
147. C3A G39C C72U U92A A111G  -5.51
148. A2U A6G G17U G39U G52U C73G  -5.54
149. A2G G42U G69A C123A  -5.6
150. A2C C49G U67G A84G G110U  -5.64
151. A2G G10C G51C G52U  -5.66
152. C3U C49A G63A C80U G93A  -5.66
153. C3G C11U C97A G120C  -5.66
154. C3G C11G G19U G63A G120A  -5.7
155. C3U A43U C56G U81A A95U A111G G122A  -5.71
156. A2C U14G U54G U96G A100U G117A U126A U129G  -5.8
157. C3U A27G G135U  -5.83
158. A2G A18U C28G C124A U130C  -5.83
159. A2U C99U  -5.84
160. C3G U9C C13A C70G C89A U96C C101A G117C  -5.88
161. A2U C13A C28U U112G  -6
162. C3A C8G C12A C13U C20G G35C C70G A118G C124A U132A  -6.19
163. A2G G60C G71U A91C G120C  -6.25
164. C3U A5G C34U G61C C62G C94U U109A C115U  -6.29
165. A2U C11U G45A U81C  -6.34
166. C3A G42U G48U G52U C64U C86U G113U U133G  -7.08
167. C3A U32A C64G C99A  -7.73
